# Reference: patent US10918717 (GREEN CROSS, dated 2021)
# Molecular target: epidermal growth factor receptor (EGFR) (Homo sapiens (Human), UniProt P00533 25-645, limits assumed)
# Test: potency 1 binding assay (ELISA); RSM sample #15 (10 mg/ml antibody, 55 mM Na-acetate, pH 6.0, 150 mM NaCl) after storage at 60 C for 1 day, relative to control
# Experimental: (11) Potency 1 (Binding assay): ELISA reader (Spectra Max 190, Molecular Devices) was used for potency 1 analysis.
# The prepared samples were subjected to thermal tests, under the storage condition of: (i) 37° C. for two weeks; or (ii) 60° C. for one day.
binder,measurement,value
"anti-EGFR antibody GC1118A (antibody, V domains shown, These may hold only the part of the antibody that was crystallised) VH: EVQLVESGGGVVQPGGSLRLSCAASGFTFSDYDMSWIRQAPGKGLEWVSGILGGSERSYYRDSVKGRFTISRDNSRKTLYLQMNSLRAEDTAVYYCARHGSPGYTLYAWDYWGQGTTVTVSS VL: DIVMTQTPLSLPVTPGEPASISCRSNQDLTHSNGNTYLEWYLQKPGQSPRLLIYKVSNRFSGVPDRFSGSGAGTDFTLRISRVEAEDVGVYYCMQGTHWPWTFGQGTKVDIKR",EC50% as compared to a control group,114 to 121%
